Measurements reported in US12454527B2, “Conjugate monomethyl auristatin E to obtain a composition for treatment of prostate cancer” (priority 2019, dated 2025).
Where two headings read alike, the source gives them in different places. Starred links: 1 amine or outer side, 2 acyl side, 3 side chain; linkers in the order of their positions; H or OH if unused. Non-standard residues stand in square brackets, D forms with d. Residues, ends and D or L forms follow the SMILES beside them. ξ: configuration not given here. *: point of attachment. GluureaLys(ε-3-ClBenzyl) = O=C(O)CC[C@H](NC(=O)N[C@@H](CCCCN(Cc1cccc(Cl)c1)*)C(=O)O)C(=O)O; Dolaproine = CO[C@@H]([C@@H]1CCCN1)[C@@H](C)C(=O)O; Dil = CC[C@H](C)[C@H](NC)[C@@H](CC(=O)O)OC; X1 = O=C(CCCc1cn(CCCN[*:1])nn1)[*:2]; PABC = O=C(OCc1ccc(N[*:1])cc1)[*:2]; X2 = C[C@@H](N*)[C@@H](O)c1ccccc1; Cit = NC(=O)NCCC[C@H](N)C(=O)O; Suc = O=C(CCC(=O)[*:2])[*:1]; NMeV = CN[C@H](C(=O)O)C(C)C; ξV = CC(C)C(N)C(=O)O; Ahx = NCCCCCC(=O)O

Columns and labels:
[1] = Assessment of the tolerability in the 22Rv1 xenograft study (body weight, survival, general health); type: in vivo, mice; conditions: 0.3 mg/kg; for Body weight of mice (M ± m): in g (unit assumed)
[2] = Pharmacokinetics in plasma of rats after a single injection; type: in vivo; conditions: male, white outbred, rat, plasma; for level at 0.08 h / level at 0.25 h / level at 0.5 h / level at 1 h / level at 1.5 h / level at 2 h / level at 3 h / level at 4 h / level at 6 h / level at 8 h / level at 10 h / level at 12 h: rats N=6; for level at 0.5 h: 0.50 hour; for level at 1.5 h: 1.50 hour
Method: The pharmacokinetics study for the Conjugate (I) product in plasma of rabbits and rats after a single injection.
The leporids and rodents are the standard targets for preclinical studies of potential drug products as well as determining the pharmacokinetic parameters. The rabbits and rats are recommended as test systems to study pharmacokinetic properties of pharmaceutical products by the regulatory documents (FIG. 7, FIG. 8).
This study was performed on healthy awake white outbred mature male rats aged about 3 months with body weight of 190-210 g. […] The pharmacokinetic data, determined from this number of test animals, are sufficient to obtain the primary quantitative characteristics of test product distribution and elimination and the calculation of descriptive statistics parameters.
• 1. Conjugate (1) • 2. Solubilizer Pluronic F127—in the amount, five-fold greater than the conjugate amount by weight. • 3, Diluent—Haemodes infusion solution. • Dimethyl sulfoxide—in the amount of 5% of the prepared volume. • Rabbit experiment (see Tables 5, 6), • Rat experiment (see Tables 7, 8).

[3] = read-out: Concentration in blood plasma, Geometr. mean
[4] = read-out: Concentration in blood plasma, Mean value
[5] = read-out: Concentration in blood plasma, Median

CC[C@H](C)[C@@H]([C@@H](CC(=O)N1CCC[C@H]1[C@H](OC)[C@@H](C)C(=O)N[C@H](C)[C@@H](O)c1ccccc1)OC)N(C)C(=O)[C@@H](NC(=O)[C@H](C(C)C)N(C)C(=O)OCc1ccc(NC(=O)[C@H](CCCNC(N)=O)NC(=O)C(NC(=O)CCCc2cn(CCCNC(=O)[C@H](Cc3ccc(O)cc3)NC(=O)[C@H](Cc3ccccc3)NC(=O)CCC(=O)NCCCCCC(=O)N(CCCC[C@H](NC(=O)N[C@@H](CCC(=O)O)C(=O)O)C(=O)O)Cc3cccc(Cl)c3)nn2)C(C)C)cc1)C(C)C (stereo partly shown) [Conjugate (I)] ({GluureaLys(ε-3-ClBenzyl)-Ahx-Suc}-FY[X1][ξV][Cit][PABC][NMeV]V[Dil][Dolaproine]-X2)
Body weight of mice (M ± m) ([1]; day 0 after treatment initiated): 22.2 ± 0.53
Body weight of mice (M ± m) ([1]; day 2): 21.2 ± 0.36
Body weight of mice (M ± m) ([1]; day 4): 18.0 ± 0.48
Body weight of mice (M ± m) ([1]; day 6): 19.2 ± 0.35
Body weight of mice (M ± m) ([1]; day 8): 19.4 ± 0.4
Death cases ([1]; mice): no death cases
Survival ([1]; mice, whole experiment): 100%
General health and mice behavior ([1]; within and after intake): satisfactory without any pathologic changes and gastrointestinal and any other toxicity
half-life ([2]; intravenous, 1.5 mg/kg, rats, individual animals): 4.11 h
MRT last ([2]; intravenous, 1.5 mg/kg, rats, individual animals, read-out: MRT 0-t): 3.98 h
level at 0.08 h [2, 3]: 19000 ng/mL
level at 0.08 h [2, 4]: 26100 ng/mL
level at 0.08 h [2, 5]: 19100 ng/mL
level at 0.25 h [2, 3]: 17000 ng/mL
level at 0.25 h [2, 4]: 19900 ng/mL
level at 0.25 h [2, 5]: 18000 ng/mL
level at 0.5 h [2, 3]: 16200 ng/mL
level at 0.5 h [2, 4]: 18000 ng/mL
level at 0.5 h [2, 5]: 14300 ng/mL
level at 1 h [2, 3]: 13400 ng/mL
level at 1 h [2, 4]: 15200 ng/mL
level at 1 h [2, 5]: 12500 ng/mL
level at 1.5 h [2, 3]: 10700 ng/mL
level at 1.5 h [2, 4]: 11600 ng/mL
level at 1.5 h [2, 5]: 10700 ng/mL
level at 2 h [2, 3]: 10900 ng/mL
level at 2 h [2, 4]: 11500 ng/mL
level at 2 h [2, 5]: 10500 ng/mL
level at 3 h [2, 3]: 7480 ng/mL
level at 3 h [2, 4]: 7680 ng/mL
level at 3 h [2, 5]: 7470 ng/mL
level at 4 h [2, 3]: 5730 ng/mL
level at 4 h [2, 4]: 5860 ng/mL
level at 4 h [2, 5]: 5840 ng/mL
level at 6 h [2, 3]: 4390 ng/mL
level at 6 h [2, 4]: 4500 ng/mL
level at 6 h [2, 5]: 4240 ng/mL
level at 8 h [2, 3]: 3260 ng/mL
level at 8 h [2, 4]: 3350 ng/mL
level at 8 h [2, 5]: 3190 ng/mL
level at 10 h [2, 3]: 2300 ng/mL
level at 10 h [2, 4]: 2370 ng/mL
level at 10 h [2, 5]: 2090 ng/mL
level at 12 h [2, 3]: 1760 ng/mL
level at 12 h [2, 4]: 1820 ng/mL
level at 12 h [2, 5]: 1620 ng/mL
